Test results from IntAct's records for PubMed 36931259.

B1: 14-3-3 protein sigma (Homo sapiens), P31947 (parent)
chain: MERASLIQKAKLAEQAERYEDMAAFMKGAVEKGEELSCEERNLLSVAYKNVVGGQRAAWRVLSSIEQKSNEEGSEEKGPEVREYREKVETELQGVCDTVLGLLDSHLIKEAGDAESRVFYLKMKGDYYRYLAEVATGDDKKRIIDSARSAYQEAMDISKKEMPPTNPIRLGLALNFSVFHYEIANSPEEAISLAKTTFDEAMADLHTLSEDSYKDSTLIMQLLRDNLTLWTADNAGEEGGEAPQEPQS
partner: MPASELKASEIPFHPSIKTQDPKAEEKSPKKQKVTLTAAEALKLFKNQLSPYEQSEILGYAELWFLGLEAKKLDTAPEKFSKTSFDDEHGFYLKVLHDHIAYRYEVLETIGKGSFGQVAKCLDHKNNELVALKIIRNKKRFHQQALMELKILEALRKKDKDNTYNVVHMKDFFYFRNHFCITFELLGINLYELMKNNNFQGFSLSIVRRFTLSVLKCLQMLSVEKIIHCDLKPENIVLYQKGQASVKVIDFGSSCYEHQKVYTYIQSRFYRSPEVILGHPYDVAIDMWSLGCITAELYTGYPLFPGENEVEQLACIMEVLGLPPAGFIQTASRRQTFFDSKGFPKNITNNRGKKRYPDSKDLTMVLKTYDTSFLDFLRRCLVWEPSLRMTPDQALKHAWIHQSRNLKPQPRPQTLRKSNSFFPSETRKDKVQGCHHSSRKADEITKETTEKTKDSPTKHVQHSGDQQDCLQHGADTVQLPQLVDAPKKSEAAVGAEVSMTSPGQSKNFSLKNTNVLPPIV
B2: 14-3-3 protein sigma (Homo sapiens), P31947 (parent)
chain: B1 chain
partner: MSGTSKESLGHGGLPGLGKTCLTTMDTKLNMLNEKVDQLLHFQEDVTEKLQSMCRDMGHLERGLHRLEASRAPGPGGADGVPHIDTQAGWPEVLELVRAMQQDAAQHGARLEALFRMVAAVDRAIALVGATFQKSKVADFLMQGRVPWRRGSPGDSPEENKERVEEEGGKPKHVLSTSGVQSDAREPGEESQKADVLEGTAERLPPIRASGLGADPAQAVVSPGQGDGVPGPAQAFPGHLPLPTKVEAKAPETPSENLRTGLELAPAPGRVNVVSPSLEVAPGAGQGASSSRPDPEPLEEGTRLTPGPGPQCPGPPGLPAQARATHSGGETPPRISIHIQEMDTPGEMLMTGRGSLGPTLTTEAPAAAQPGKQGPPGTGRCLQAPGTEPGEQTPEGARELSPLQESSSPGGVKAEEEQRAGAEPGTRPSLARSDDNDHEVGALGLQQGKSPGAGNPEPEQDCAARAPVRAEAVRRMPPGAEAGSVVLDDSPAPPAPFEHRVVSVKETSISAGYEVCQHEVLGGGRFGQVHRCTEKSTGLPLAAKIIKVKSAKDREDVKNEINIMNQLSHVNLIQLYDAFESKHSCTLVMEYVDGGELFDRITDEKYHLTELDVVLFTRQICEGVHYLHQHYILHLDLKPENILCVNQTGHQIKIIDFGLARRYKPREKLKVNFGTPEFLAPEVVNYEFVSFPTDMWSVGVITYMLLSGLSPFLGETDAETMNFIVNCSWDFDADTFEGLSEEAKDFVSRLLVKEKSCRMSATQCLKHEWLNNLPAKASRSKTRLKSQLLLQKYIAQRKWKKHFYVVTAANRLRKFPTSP
B3: 14-3-3 protein sigma (Homo sapiens), P31947 (parent)
chain: B1 chain
partner: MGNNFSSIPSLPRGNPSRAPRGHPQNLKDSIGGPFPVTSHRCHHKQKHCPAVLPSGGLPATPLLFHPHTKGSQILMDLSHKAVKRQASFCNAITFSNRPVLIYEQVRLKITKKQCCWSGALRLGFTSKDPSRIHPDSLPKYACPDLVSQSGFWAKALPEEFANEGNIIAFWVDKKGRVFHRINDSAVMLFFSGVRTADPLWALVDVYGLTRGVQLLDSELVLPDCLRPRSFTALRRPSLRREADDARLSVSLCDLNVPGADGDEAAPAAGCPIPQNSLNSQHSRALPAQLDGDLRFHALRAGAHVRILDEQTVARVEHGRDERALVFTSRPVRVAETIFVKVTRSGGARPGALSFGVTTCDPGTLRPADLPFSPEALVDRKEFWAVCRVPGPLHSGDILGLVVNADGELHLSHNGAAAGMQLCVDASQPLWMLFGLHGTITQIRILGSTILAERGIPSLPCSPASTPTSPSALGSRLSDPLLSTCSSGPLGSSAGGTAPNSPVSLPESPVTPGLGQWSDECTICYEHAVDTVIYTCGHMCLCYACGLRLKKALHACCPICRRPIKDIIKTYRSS
B4: 14-3-3 protein sigma (Homo sapiens), P31947 (parent)
chain: B1 chain
partner: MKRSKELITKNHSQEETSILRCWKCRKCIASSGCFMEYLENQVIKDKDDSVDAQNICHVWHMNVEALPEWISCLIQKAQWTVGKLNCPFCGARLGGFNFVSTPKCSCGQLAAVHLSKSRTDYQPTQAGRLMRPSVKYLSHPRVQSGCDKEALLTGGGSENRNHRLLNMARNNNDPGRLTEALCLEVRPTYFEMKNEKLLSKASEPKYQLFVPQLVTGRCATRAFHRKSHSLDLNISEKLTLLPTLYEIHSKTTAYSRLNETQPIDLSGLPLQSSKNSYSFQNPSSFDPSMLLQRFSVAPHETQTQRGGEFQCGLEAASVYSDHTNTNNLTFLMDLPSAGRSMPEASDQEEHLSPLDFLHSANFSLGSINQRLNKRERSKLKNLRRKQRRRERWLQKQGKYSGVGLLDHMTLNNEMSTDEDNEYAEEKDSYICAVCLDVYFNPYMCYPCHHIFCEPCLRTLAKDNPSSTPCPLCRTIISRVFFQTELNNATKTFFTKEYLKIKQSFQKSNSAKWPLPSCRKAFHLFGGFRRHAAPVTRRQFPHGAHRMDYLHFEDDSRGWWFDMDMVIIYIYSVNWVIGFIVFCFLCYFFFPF
B5: 14-3-3 protein sigma (Homo sapiens), P31947 (parent)
chain: B1 chain
partner: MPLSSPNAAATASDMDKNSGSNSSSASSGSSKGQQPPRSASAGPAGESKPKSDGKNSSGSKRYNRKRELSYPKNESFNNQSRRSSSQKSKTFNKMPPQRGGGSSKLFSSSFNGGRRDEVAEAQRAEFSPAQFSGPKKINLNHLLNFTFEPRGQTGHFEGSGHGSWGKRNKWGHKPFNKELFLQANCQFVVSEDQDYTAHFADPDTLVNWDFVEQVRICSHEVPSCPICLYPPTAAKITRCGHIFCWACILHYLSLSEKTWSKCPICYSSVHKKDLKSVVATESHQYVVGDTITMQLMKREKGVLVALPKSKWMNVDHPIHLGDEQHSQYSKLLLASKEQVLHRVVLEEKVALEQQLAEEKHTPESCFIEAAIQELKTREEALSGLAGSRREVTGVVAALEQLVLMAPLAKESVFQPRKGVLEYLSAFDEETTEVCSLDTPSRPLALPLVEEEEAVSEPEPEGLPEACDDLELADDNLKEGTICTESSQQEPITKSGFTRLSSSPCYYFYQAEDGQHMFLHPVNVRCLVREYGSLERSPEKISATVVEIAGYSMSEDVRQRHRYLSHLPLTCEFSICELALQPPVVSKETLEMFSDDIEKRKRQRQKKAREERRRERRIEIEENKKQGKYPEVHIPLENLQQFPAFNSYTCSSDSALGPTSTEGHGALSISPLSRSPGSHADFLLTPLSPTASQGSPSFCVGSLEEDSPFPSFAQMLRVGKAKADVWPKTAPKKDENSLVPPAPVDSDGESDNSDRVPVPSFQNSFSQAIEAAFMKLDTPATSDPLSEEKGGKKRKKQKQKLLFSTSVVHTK
B6: 14-3-3 protein sigma (Homo sapiens), P31947 (parent)
chain: B1 chain
partner: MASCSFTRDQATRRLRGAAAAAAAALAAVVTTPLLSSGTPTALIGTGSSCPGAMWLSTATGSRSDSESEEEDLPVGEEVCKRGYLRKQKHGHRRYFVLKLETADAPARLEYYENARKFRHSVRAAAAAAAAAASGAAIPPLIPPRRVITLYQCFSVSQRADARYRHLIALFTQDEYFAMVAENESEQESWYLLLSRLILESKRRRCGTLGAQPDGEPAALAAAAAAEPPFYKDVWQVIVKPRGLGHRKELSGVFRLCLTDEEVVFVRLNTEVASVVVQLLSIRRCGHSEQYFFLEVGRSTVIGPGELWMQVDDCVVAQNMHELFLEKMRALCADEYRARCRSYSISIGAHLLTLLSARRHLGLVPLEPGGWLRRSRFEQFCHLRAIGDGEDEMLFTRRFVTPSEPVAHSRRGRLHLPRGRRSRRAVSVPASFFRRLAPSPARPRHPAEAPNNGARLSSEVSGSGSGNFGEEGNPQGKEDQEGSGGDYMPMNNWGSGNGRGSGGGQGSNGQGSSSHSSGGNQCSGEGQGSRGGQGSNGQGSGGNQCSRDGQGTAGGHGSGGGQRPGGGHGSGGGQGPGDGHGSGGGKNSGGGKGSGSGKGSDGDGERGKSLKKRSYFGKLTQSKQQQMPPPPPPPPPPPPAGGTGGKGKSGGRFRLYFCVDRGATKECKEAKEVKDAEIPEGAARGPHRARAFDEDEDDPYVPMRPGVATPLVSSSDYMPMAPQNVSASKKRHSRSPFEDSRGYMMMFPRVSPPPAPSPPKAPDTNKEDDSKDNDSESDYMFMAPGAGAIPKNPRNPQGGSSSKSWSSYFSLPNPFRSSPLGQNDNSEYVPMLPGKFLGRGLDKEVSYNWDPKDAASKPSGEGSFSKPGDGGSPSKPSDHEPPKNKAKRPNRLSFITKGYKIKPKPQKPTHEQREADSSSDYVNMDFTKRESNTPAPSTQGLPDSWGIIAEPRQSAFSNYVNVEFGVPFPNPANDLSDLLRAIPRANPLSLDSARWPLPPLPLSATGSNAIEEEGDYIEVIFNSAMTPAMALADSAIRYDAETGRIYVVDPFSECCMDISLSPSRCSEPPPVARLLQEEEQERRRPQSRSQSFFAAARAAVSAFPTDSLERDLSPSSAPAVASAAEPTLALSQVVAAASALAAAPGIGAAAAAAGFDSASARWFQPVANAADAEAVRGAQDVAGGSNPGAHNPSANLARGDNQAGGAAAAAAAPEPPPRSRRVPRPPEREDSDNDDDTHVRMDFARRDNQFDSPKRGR

Variants of: B1
Settings: with dyrk4_human DYRK4, Q9NR20

| effect of a mutation on the interaction | Variant |
| --- | --- |
| decreasing interaction strength | K49E;R56E;V178D |

Variants of: B2
Settings: with mylk3_human MYLK3, Q32MK0

| effect of a mutation on the interaction | Variant |
| --- | --- |
| decreasing interaction strength | K49E;R56E;V178D |

Variants of: B3
Settings: with neul1_human NEURL1, O76050

| effect of a mutation on the interaction | Variant |
| --- | --- |
| decreasing interaction strength | K49E;R56E;V178D |

Variants of: B4
Settings: with rn180_human RNF180, Q86T96

| effect of a mutation on the interaction | Variant |
| --- | --- |
| decreasing interaction strength | K49E;R56E;V178D |

Variants of: B5
Settings: with rnf10_human RNF10, Q8N5U6

| effect of a mutation on the interaction | Variant |
| --- | --- |
| decreasing interaction strength | K49E;R56E;V178D |

Variants of: B6
Settings: with irs4_human IRS4, O14654

| effect of a mutation on the interaction | Variant |
| --- | --- |
| decreasing interaction strength | K49E;R56E;V178D |
